In patent US6407062 (ST JUDE CHILDREN S RESEARCH HOSPITAL, dated 2000):

How the values were obtained:
CDK4 (mouse, endogenous) [1] = molecular target: T1, CDK4 (mouse, endogenous) (mouse, UniProt P30285 2-303); assay: p16 immunoprecipitates blotted with antiserum to CDK4
T1 sequence (looked up): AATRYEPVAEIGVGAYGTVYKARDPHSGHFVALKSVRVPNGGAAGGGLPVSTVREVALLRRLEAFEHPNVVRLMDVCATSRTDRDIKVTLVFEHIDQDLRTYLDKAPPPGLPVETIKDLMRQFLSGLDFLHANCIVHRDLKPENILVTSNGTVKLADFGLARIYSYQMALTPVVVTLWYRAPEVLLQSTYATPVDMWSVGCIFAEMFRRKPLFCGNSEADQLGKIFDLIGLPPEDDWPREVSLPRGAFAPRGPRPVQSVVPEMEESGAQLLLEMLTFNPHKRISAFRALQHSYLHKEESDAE

[2] = molecular target: cyclin D2 (mouse, endogenous) (mouse, UniProt P30280 1-289); assay: immunoprecipitates from cell lysates blotted with anti-ARF-p19; Sf9 baculovirus reconstruction also gave no convincing evidence
Sequence of cyclin D2 (mouse, endogenous) (P30280 whole entry): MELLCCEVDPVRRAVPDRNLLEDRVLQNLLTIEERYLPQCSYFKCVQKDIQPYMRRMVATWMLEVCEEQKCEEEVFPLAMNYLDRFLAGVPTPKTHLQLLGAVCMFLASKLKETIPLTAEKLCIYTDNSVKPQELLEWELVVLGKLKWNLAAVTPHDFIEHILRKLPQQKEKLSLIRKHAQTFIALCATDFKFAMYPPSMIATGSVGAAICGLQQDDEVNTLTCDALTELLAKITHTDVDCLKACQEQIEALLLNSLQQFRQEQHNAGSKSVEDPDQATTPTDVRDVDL

[3] = molecular target: cyclin D1 (mouse, endogenous) (mouse, UniProt P25322 1-295); assay: as above
Sequence of cyclin D1 (mouse, endogenous) (P25322 whole entry): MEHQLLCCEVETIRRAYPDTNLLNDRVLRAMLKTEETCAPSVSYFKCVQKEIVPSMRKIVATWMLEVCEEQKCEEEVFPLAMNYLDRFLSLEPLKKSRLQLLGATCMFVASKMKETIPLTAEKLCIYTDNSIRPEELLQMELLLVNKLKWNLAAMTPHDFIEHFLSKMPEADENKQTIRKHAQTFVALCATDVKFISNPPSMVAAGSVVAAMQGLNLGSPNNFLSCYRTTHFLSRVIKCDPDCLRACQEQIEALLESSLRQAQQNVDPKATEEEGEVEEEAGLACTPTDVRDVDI

CDC2 (mouse, endogenous) = molecular target: T2, CDC2 (mouse, endogenous) (mouse, UniProt P11440 1-297); assay: as above
T2 construct: also called CDK1
T2 sequence (P11440 whole entry): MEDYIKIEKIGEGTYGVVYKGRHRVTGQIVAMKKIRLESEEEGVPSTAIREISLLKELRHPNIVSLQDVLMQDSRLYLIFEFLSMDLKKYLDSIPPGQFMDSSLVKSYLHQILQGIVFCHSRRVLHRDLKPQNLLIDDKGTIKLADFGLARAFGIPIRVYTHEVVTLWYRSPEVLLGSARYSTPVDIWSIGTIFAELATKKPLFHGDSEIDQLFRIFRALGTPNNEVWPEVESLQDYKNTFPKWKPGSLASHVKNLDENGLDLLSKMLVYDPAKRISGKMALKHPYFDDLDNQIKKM

[4] = molecular target: cyclin A (mouse, endogenous) (mouse, UniProt P51943 1-422, limits assumed); assay: as above
Sequence of cyclin A (mouse, endogenous) (P51943 whole entry): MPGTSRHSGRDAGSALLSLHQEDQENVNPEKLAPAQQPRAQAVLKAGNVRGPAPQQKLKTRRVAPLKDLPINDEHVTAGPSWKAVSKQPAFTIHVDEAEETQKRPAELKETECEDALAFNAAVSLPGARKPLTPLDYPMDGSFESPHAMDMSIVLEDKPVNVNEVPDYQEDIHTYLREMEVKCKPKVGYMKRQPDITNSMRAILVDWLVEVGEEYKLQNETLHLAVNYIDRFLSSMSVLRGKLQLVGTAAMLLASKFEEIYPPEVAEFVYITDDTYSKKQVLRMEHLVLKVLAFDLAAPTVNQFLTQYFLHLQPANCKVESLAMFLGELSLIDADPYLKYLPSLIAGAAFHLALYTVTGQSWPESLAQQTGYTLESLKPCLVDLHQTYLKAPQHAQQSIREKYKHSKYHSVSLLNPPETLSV

CDK4 (mouse, endogenous) [5] = molecular target: T1, CDK4 (mouse, endogenous); assay: as above
CDK6 (mouse, endogenous) = CDK6 (mouse, endogenous) (mouse, UniProt Q64261 1-326); assay: as above
Sequence of CDK6 (mouse, endogenous) (Q64261 whole entry): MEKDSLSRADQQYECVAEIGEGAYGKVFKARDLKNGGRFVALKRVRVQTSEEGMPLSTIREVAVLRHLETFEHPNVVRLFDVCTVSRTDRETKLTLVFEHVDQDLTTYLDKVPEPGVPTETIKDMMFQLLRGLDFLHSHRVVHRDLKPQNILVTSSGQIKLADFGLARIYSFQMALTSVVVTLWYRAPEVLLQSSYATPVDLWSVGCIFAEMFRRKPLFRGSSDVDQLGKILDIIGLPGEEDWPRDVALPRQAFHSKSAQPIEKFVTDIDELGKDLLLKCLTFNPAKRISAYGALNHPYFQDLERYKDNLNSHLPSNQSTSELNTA

[6] = molecular target: endogenous wild-type p53 of mouse fibroblasts (NIH-3T3 cells, MEFs) (mouse, UniProt P02340 1-390); assay: sequential immunoprecipitation from NIH-3T3 cells; EMSA
Sequence of endogenous wild-type p53 of mouse fibroblasts (NIH-3T3 cells, MEFs) (P02340 whole entry): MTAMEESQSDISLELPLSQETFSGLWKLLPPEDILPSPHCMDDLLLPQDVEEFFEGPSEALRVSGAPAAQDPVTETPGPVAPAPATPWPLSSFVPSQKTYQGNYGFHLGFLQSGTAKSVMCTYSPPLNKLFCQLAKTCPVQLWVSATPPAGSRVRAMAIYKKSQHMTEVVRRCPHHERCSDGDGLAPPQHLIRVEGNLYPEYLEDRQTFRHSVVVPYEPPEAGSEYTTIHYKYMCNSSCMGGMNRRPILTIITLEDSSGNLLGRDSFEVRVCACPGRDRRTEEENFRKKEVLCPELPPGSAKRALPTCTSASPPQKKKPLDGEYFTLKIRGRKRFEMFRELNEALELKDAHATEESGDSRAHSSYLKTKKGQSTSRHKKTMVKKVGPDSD

[7] = molecular target: T3, Hdm2 (Human Double Minute 2, full-length, untagged) (human, UniProt Q00987 1-491); assay: binding assay not described further
T3 construct: GenBank M92424 printed; also called wild type Hdm2
T3 sequence (Q00987 whole entry): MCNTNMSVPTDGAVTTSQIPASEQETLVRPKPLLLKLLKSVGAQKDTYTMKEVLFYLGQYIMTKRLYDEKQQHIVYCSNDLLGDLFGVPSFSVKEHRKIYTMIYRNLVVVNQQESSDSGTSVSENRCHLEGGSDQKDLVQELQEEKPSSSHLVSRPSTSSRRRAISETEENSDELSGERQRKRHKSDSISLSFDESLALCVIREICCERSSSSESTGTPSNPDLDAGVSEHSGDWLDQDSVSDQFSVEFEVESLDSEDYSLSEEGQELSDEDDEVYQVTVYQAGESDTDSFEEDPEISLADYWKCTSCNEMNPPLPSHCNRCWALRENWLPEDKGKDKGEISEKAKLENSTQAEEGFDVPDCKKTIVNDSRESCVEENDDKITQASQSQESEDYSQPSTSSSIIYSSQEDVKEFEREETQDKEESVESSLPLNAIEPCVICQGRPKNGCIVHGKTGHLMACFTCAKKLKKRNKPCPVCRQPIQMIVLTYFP

[8] = molecular target: T4, Hdm2 210-304 (polyhistidine-tagged, bacterial) (human, UniProt Q00987 210-304); assay: FPLC affinity chromatography, NaCl gradient then acid
T4 construct: The sense primer places an ATG before residue 211; not shown: N-terminal polyhistidine tag of pET28a
T4 sequence (Q00987 210-304): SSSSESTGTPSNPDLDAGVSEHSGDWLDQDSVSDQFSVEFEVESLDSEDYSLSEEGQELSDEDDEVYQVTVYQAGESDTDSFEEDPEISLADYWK

[9] = molecular target: T5, Hdm2 140-350 (polyhistidine-tagged, bacterial) (human, UniProt Q00987 140-350); assay: FPLC affinity chromatography, ARF polypeptide coupled to Sepharose, NaCl gradient then acid
T5 construct: The sense primer places an ATG before residue 141, so position 140 of the construct may be Met; also called Hdm2 140-350 polypeptide; not shown: N-terminal polyhistidine tag of pET28a
T5 sequence (Q00987 140-350): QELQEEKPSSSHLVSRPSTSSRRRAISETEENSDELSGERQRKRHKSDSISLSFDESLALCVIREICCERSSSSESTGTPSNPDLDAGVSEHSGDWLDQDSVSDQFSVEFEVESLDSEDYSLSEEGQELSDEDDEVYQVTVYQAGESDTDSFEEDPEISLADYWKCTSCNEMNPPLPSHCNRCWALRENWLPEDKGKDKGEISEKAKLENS

[10] = molecular target: T6, Mdm2 (Murine Double Minute 2, full-length) (mouse, UniProt P23804 1-489); assay: His-tagged syn-ARF N37 mixed with Mdm2 from Sf9 cells, immunoprecipitation with 2A10 or anti-polyhistidine and blot
T6 construct: Full-length protein made in Sf9 cells from a baculovirus, or endogenous in NIH-3T3 cells; GenBank X58876 printed; also called wild type Mdm2; full-length Mdm2
T6 sequence (P23804 other isoform, or with tags, fused parts or gaps limits assumed): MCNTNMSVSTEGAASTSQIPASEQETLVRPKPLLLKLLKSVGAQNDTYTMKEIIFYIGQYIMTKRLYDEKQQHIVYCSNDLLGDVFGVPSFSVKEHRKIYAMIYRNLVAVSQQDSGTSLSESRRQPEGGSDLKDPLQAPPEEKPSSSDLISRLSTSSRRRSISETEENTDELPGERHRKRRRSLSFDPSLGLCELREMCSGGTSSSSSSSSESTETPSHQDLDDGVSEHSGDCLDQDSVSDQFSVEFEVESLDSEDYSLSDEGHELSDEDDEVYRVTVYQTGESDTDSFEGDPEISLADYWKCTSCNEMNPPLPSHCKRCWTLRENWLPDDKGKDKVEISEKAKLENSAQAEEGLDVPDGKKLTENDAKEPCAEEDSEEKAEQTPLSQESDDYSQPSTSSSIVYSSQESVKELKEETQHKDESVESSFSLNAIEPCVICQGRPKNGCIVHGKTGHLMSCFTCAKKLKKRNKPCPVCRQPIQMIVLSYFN

[11] = molecular target: T5, Hdm2 140-350 (polyhistidine-tagged, …); assay: immunoprecipitation and blot with bacterial Hdm2 140-350
[12] = molecular target: T5, Hdm2 140-350 (polyhistidine-tagged, …); assay: FPLC affinity chromatography on peptide coupled to Sepharose
[13] = molecular target: T4, Hdm2 210-304 (polyhistidine-tagged, …); assay: as above

B1: InK4a-p16 (mouse) (other, UniProt P51480 1-168, looked up)
chain: MESAADRLARAAAQGRVHDVRALLEAGVSPNAPNSFGRTPIQVMMMGNVHVAALLLNYGADSNCEDPTTFSRPVHDAAREGFLDTLVVLHGSGARLDVRDAWGRLPLDLAQERGHQDIVRYLRSAGCSLCSAGWSLCTAGNVAQTDGHSFSSSTPRALELRGQSQEQS
notes: not used; also called p16^INK4a
binding result (CDK4 (mouse, endogenous) [1]): binds

B2: ARF-p19 (mouse, full-length 169 amino acid protein) (other)
chain: MGRRFLVTVRIQRAGRPLQERVFLVKFVRSRRPRTASCALAFVNMLLRLERILRRGPHRNPGPGDDDGQRSRSSSSAQLRCRFELRGPHYLLPPGARRSAGRLPGHAGGAARVRGSAGCARCLGSPAARLGPRAGTSRHRAIFAFRWVLFVFRWVVFVYRWERRPDRRA
notes: also called p19^ARF; p19^ARF protein
binding result [2]: no binding
binding result [3]: no binding
binding result (CDC2 (mouse, endogenous)): no binding
binding result [4]: no binding
binding result (CDK4 (mouse, endogenous) [5]): no binding
binding result (CDK6 (mouse, endogenous)): no binding
binding result [6]: binds

B3: syn-ARF N64 (polyhistidine-tagged mouse ARF residues 1-64, made in bacteria) (other)
chain: MGRRFLVTVRIQRAGRPLQERVFLVKFVRSRRPRTASCALAFVNMLLRLERILRRGPHRNPGPG
notes: also called minigene-encoded N64 polypeptide; not shown: N-terminal polyhistidine tag of pET28a
binding result [7]: binds

B4: ARF N62 (mouse p19^ARF N-terminal 62 amino acids, HA-tagged) (other, not shown: small tags and cut ends)
chain: MGRRFLVTVRIQRAGRPLQERVFLVKFVRSRRPRTASCALAFVNMLLRLERILRRGPHRNPG
notes: Produced in Sf9 cells; also called HA-tagged N62; ARF N62 mutant
binding result [7]: binds

B5: syn-ARF N37 (polyhistidine-tagged mouse ARF residues 1-37, made in bacteria) (peptide)
chain: MGRRFLVTVRIQRAGRPLQERVFLVKFVRSRRPRTAS
notes: also called Synthetic ARF N37; recombinant syn-ARF N37; not shown: N-terminal polyhistidine tag of pET28a
binding result [8]: binds
binding result [9]: binds
binding result [10]: binds

B6: mouse p19^ARF Δ1-14 (HA-tagged deletion mutant) (other)
chain: GRPLQERVFLVKFVRSRRPRTASCALAFVNMLLRLERILRRGPHRNPGPGDDDGQRSRSSSSAQLRCRFELRGPHYLLPPGARRSAGRLPGHAGGAARVRGSAGCARCLGSPAARLGPRAGTSRHRAIFAFRWVLFVFRWVVFVYRWERRPDRRA
notes: also called p19^ARF mutant lacking amino acid residues 1-14; not shown: N-terminal HA tag of the HA-tagged ARF cDNA template
binding result [11]: binds

B7: mouse p19^ARF Δ15-25 (HA-tagged deletion mutant) (other)
chain: MGRRFLVTVRIQRAKFVRSRRPRTASCALAFVNMLLRLERILRRGPHRNPGPGDDDGQRSRSSSSAQLRCRFELRGPHYLLPPGARRSAGRLPGHAGGAARVRGSAGCARCLGSPAARLGPRAGTSRHRAIFAFRWVLFVFRWVVFVYRWERRPDRRA
notes: not shown: N-terminal HA tag of the HA-tagged ARF cDNA template
binding result [11]: binds

B8: mouse p19^ARF Δ26-37 (HA-tagged deletion mutant) (other)
chain: MGRRFLVTVRIQRAGRPLQERVFLVCALAFVNMLLRLERILRRGPHRNPGPGDDDGQRSRSSSSAQLRCRFELRGPHYLLPPGARRSAGRLPGHAGGAARVRGSAGCARCLGSPAARLGPRAGTSRHRAIFAFRWVLFVFRWVVFVYRWERRPDRRA
notes: also called HA-ARF Δ26-37; not shown: N-terminal HA tag
binding result [11]: binds

B9: mouse p19^ARF Δ1-14/Δ26-37 (HA-tagged double-deletion mutant) (other)
chain: GRPLQERVFLVCALAFVNMLLRLERILRRGPHRNPGPGDDDGQRSRSSSSAQLRCRFELRGPHYLLPPGARRSAGRLPGHAGGAARVRGSAGCARCLGSPAARLGPRAGTSRHRAIFAFRWVLFVFRWVVFVYRWERRPDRRA
notes: also called ARF Δ1-14/26-37; not shown: N-terminal HA tag
binding result [11]: no binding

B10: mouse ARF synthetic peptide 15-25 (peptide)
peptide: GRPLQERVFLV
notes: Coupled to Sepharose; also called ARF 15-25
binding result [12]: no binding
binding result [13]: no binding
